{"source": "paper doi:10.1101/2025.11.24.690255v1", "data": [{"substrate": "O=[N+]([O-])c1ccc(O[C@@H]2O[C@H](CO)[C@@H](O)[C@H](O)[C@H]2O)cc1", "test": "purified protein", "settings": "0-100 mM substrate, 15 min", "units": {"Km": "mM", "kcat": "s⁻¹"}, "values": [{"protein": "β-glucosidase B (BglB) (Paenibacillus polymyxa; N160L) (protein) MSENTFIFPATFMWGTSTSSYQIEGGTDEGGRTPSIWDTFCQIPGKVIGGDCGDVACDHFHHFKEDVQLMKQLGFLHYRFSVAWPRIMPAAGIINEEGLLFYEHLLDEIELAGLIPMLTLYHWDLPQWIEDEGGWTQRETIQHFKTYASVIMDRFGERILWWNTINEPYCASILGYGTGEHAPGHENWREAFTAAHHILMCHGIASNLHKEKGLTGKIGITLNMEHVDAASERPEDVAAAIRRDGFINRWFAEPLFNGKYPEDMVEWYGTYLNGLDFVQPGDMELIQQPGDFLGINYYTRSIIRSTNDASLLQVEQVHMEEPVTDMGWEIHPESFYKLLTRIEKDFSKGLPILITENGAAMRDELVNGQIEDTGRHGYIEEHLKACHRFIEEGGQLKGYFVWSFLDNFEWAWGYSKRFGIVHINYETQERTPKQSALWFKQMMAKNGF", "Km": "13.8 ± 1.6", "kcat": "3.245 ± 0.127"}, {"protein": "β-glucosidase B (BglB) (Paenibacillus polymyxa; N160G) (protein) MSENTFIFPATFMWGTSTSSYQIEGGTDEGGRTPSIWDTFCQIPGKVIGGDCGDVACDHFHHFKEDVQLMKQLGFLHYRFSVAWPRIMPAAGIINEEGLLFYEHLLDEIELAGLIPMLTLYHWDLPQWIEDEGGWTQRETIQHFKTYASVIMDRFGERIGWWNTINEPYCASILGYGTGEHAPGHENWREAFTAAHHILMCHGIASNLHKEKGLTGKIGITLNMEHVDAASERPEDVAAAIRRDGFINRWFAEPLFNGKYPEDMVEWYGTYLNGLDFVQPGDMELIQQPGDFLGINYYTRSIIRSTNDASLLQVEQVHMEEPVTDMGWEIHPESFYKLLTRIEKDFSKGLPILITENGAAMRDELVNGQIEDTGRHGYIEEHLKACHRFIEEGGQLKGYFVWSFLDNFEWAWGYSKRFGIVHINYETQERTPKQSALWFKQMMAKNGF", "Km": "3.5 ± 0.2", "kcat": "9.81 ± 0.137"}, {"protein": "β-glucosidase B (BglB) (Paenibacillus polymyxa; N160C) (protein) MSENTFIFPATFMWGTSTSSYQIEGGTDEGGRTPSIWDTFCQIPGKVIGGDCGDVACDHFHHFKEDVQLMKQLGFLHYRFSVAWPRIMPAAGIINEEGLLFYEHLLDEIELAGLIPMLTLYHWDLPQWIEDEGGWTQRETIQHFKTYASVIMDRFGERICWWNTINEPYCASILGYGTGEHAPGHENWREAFTAAHHILMCHGIASNLHKEKGLTGKIGITLNMEHVDAASERPEDVAAAIRRDGFINRWFAEPLFNGKYPEDMVEWYGTYLNGLDFVQPGDMELIQQPGDFLGINYYTRSIIRSTNDASLLQVEQVHMEEPVTDMGWEIHPESFYKLLTRIEKDFSKGLPILITENGAAMRDELVNGQIEDTGRHGYIEEHLKACHRFIEEGGQLKGYFVWSFLDNFEWAWGYSKRFGIVHINYETQERTPKQSALWFKQMMAKNGF", "Km": "4.3 ± 0.3", "kcat": "9.147 ± 0.157"}, {"protein": "β-glucosidase B (BglB) (Paenibacillus polymyxa; N160M) (protein) MSENTFIFPATFMWGTSTSSYQIEGGTDEGGRTPSIWDTFCQIPGKVIGGDCGDVACDHFHHFKEDVQLMKQLGFLHYRFSVAWPRIMPAAGIINEEGLLFYEHLLDEIELAGLIPMLTLYHWDLPQWIEDEGGWTQRETIQHFKTYASVIMDRFGERIMWWNTINEPYCASILGYGTGEHAPGHENWREAFTAAHHILMCHGIASNLHKEKGLTGKIGITLNMEHVDAASERPEDVAAAIRRDGFINRWFAEPLFNGKYPEDMVEWYGTYLNGLDFVQPGDMELIQQPGDFLGINYYTRSIIRSTNDASLLQVEQVHMEEPVTDMGWEIHPESFYKLLTRIEKDFSKGLPILITENGAAMRDELVNGQIEDTGRHGYIEEHLKACHRFIEEGGQLKGYFVWSFLDNFEWAWGYSKRFGIVHINYETQERTPKQSALWFKQMMAKNGF", "Km": "14.1 ± 1.3", "kcat": "4.162 ± 0.122"}, {"protein": "β-glucosidase B (BglB) (Paenibacillus polymyxa; N160S) (protein) MSENTFIFPATFMWGTSTSSYQIEGGTDEGGRTPSIWDTFCQIPGKVIGGDCGDVACDHFHHFKEDVQLMKQLGFLHYRFSVAWPRIMPAAGIINEEGLLFYEHLLDEIELAGLIPMLTLYHWDLPQWIEDEGGWTQRETIQHFKTYASVIMDRFGERISWWNTINEPYCASILGYGTGEHAPGHENWREAFTAAHHILMCHGIASNLHKEKGLTGKIGITLNMEHVDAASERPEDVAAAIRRDGFINRWFAEPLFNGKYPEDMVEWYGTYLNGLDFVQPGDMELIQQPGDFLGINYYTRSIIRSTNDASLLQVEQVHMEEPVTDMGWEIHPESFYKLLTRIEKDFSKGLPILITENGAAMRDELVNGQIEDTGRHGYIEEHLKACHRFIEEGGQLKGYFVWSFLDNFEWAWGYSKRFGIVHINYETQERTPKQSALWFKQMMAKNGF", "Km": "4.9 ± 0.2", "kcat": "4.527 ± 0.05"}]}]}
